From US20150147342A1 (published 2015)

What was measured:
Monkey Ang-2FD-hFc = target: T1, Monkey Ang-2FD-hFc (monkey (Macca fascicularis)); assay: ELISA, 16.67 nM antibody + 2 nM monkey Ang-2FD-hFc, on coated hTie-2-mFc (competitor)
T1 construct: Order of the pieces follows the name; also called Dimeric Monkey Ang-2FD
Experimental: (§1) Tie-2 is a natural receptor for Ang-2. Anti-Ang-2 antibodies were tested for their ability to block Ang-2 binding to human Tie-2 (hTie-2). hTie-2-mFc (a chimeric construct consisting of human Tie-2 conjugated to mouse IgG; SEQ ID NO:525) was coated onto 96-well plates at a concentration of 2 μg/ml and incubated overnight followed by washing four times in wash buffer (PBS with 0.05% Tween-20). The plate was then blocked with PBS (Irvine Scientific, Santa Ana, Calif.) containing 0.5% BSA (Sigma-Aldrich Corp., St. Louis, Mo.) for one hour at room temperature. In a separate plate, purified anti-Ang-2 antibodies, at a starting concentration of 50 nM, were serially diluted by a factor of three across the plate. […] The antibody/Ang-2FD-Fc mixture was then added to the plate containing hTie-2-mFc and incubated for one hour at room temperature.

Human Ang-2FD-hFc = target: T2, Human Ang-2FD-hFc (human); assay: ELISA, 16.67 nM antibody + 2 nM human Ang-2FD-hFc, on coated hTie-2-mFc (competitor)
T2 construct: Order of the pieces follows the name (Ang-2FD, then hFc); also called Dimeric Human Ang-2FD; human Ang-2FD protein conjugated to human IgG
Experimental: as §1

Mouse Ang-2FD-hFc = target: T3, Mouse Ang-2FD-hFc (mouse (Mus musculus)); assay: ELISA, 16.67 nM antibody + 8 nM mouse Ang-2FD-hFc, on coated hTie-2-mFc (competitor)
T3 construct: Order of the pieces follows the name; also called Dimeric Mouse Ang-2FD
Experimental: as §1

[1] = target: T4, Dimeric fibrinogen-like domain of mouse (Mus musculus) Ang-2 conjugated to human IgG1 (mouse (Mus musculus)); assay: SPR, antibody captured on anti-human kappa, 25 C
T4 construct: also called Dimeric Mouse Ang-2FD; Mouse Ang-2FD-hFc
Experimental: (§2) Additional binding experiments were conducted using selected anti-Ang-2 antibodies at two different temperatures to further assess cross-species affinity. Each selected antibody or control construct was captured at a flow rate of 40 μL/min for 1 minute on a goat anti-human kappa polyclonal antibody surface created through direct chemical coupling to a BIACORE™ chip to form a captured antibody surface.

[2] = target: T4, Dimeric fibrinogen-like domain of mouse …; assay: SPR, hIgG1 antibody captured, room temp
Experimental: (§3) Antibody was captured on a goat anti-mouse IgG polyclonal antibody surface, a goat anti-human κ polyclonal antibody (Southern Biotech, Birmingham, Ala.) surface or a goat anti-human IgG polyclonal antibody (Jackson Immuno Research Lab, West Grove, Pa.) surface created through direct amine coupling to a BIACORE™ CM5 sensor chip to form a captured antibody surface. […] Antigen-antibody binding and dissociation were monitored in real time at room temperature. Kinetic analysis was performed to calculate KD and half-life of antigen/antibody complex dissociation.
(§4) The above experiment was repeated using selected purified anti-Ang-2 antibodies cloned onto human IgG1.

[3] = target: T4, Dimeric fibrinogen-like domain of mouse …; assay: SPR, antibody captured on anti-human kappa, 37 C
Experimental: as §2

[4] = target: T5, Dimeric fibrinogen-like domain of monkey (Macca fascicularis) Ang-2 conjugated to human IgG1 (monkey (Macca fascicularis)); assay: SPR, antibody captured on anti-human kappa, 25 C
T5 construct: also called Dimeric Monkey Ang-2FD; Monkey Ang-2FD-hFc
Experimental: as §2

[5] = target: T5, Dimeric fibrinogen-like domain of …; assay: SPR, hIgG1 antibody captured, room temp
Experimental: as §3, §4

[6] = target: T6, Dimeric fibrinogen-like domain of human Ang-2 conjugated to human IgG1 (human); assay: SPR, hIgG1 antibody captured, room temp
T6 construct: also called Dimeric Human Ang-2FD; Human Ang-2FD-hFc
Experimental: as §3, §4

[7] = target: T5, Dimeric fibrinogen-like domain of …; assay: SPR, antibody captured on anti-human kappa, 37 C
Experimental: as §2

Binder | Percent Blocking of Ang-2FD Binding to Tie-2 (Monkey Ang-2FD-hFc) [%] | Percent Blocking of Ang-2FD Binding to Tie-2 (Human Ang-2FD-hFc) [%] | Percent Blocking of Ang-2FD Binding to Tie-2 (Mouse Ang-2FD-hFc) [%] | other results
H1H724N (antibody, V domains shown) VH: QVQLVESGGGVVQPGRSLRLSCAASGFTLSNYGMHWVRQAPGKGLEWVAVIWHDGSNTYYADSVKGRFTISRDNSKNTLYLQMNSLRAEDTAVYYCTREGLDFWSGYYPNWFDPWGQGTLVTVSS VL: DIQMTQSPSSLSASVGDRVTITCRASQGIRNDLGWYQQKPGKAPKRLIYAASNLQGGVPSRFSGSGSGTEFTLTISSLQPEDFAAYYCLQHNIYPLTFGGGTKVEIK | 96.6 | 96.6 | 97.1 | –
H1H704P (antibody, V domains shown, Fully human antibody, human IgG1) VH: QVQLVESGGDVVQPGRSLRLSCAASGFTFSSYGMHWVRQAPGKGLEWVAIIWYDGSNKYYADSVKGRFTISRDNSKNTLYLQMNSLRVEDTAVYSCARDFSISSRHFDYWGQGTLVTVSS VL: DIQMTQSPSSLSASVGDRVTITCRASQAINNYLAWFQQKPGKAPKSLIYATSNLQSGVPSQFSGSGSGTDYTLTISSLQPEDFATYYCQQYYIYPITFGQGTRLEIK | – | 97 | 41.8 | –
H1H690P (antibody, V domains shown, Fully human antibody, human IgG1) VH: EVQLVESGGGLVQPGESLRLSCAASGFTFSSYAMSWVRQGPGKGLEWVSSITGSGDTTYYADSVKGRFTISRDNSKNTLYLHMNSLRAEDTAVYYCAKDFLDYSTYLAFDLWGQGTMVTVSS VL: EIVLTQSPATLSLSPGERATLSCRASQSVSSYLTWYQQKPGQAPRLLSYDASNRATGIPARFSGSGSGTDFTLTISSLEPEDFAVYYCQQRSNWPLTFGGGTKVEIK | 99.6 | 97.2 | 98 | –
H1H685P (antibody, V domains shown, also called mAb1) VH: EVQLVESGGGLVQPGGSLRLSCAASGFTFSSYDIHWVRQATGKGLEWVSAIGPAGDTYYPGSVKGRFTISRENAKNSLYLQMNSLRAGDTAVYYCARGLITFGGLIAPFDYWGQGTLVTVSS VL: EIVLTQSPGTLSLSPGERATLSCRASQSVSSTYLAWYQQKPGQAPRLLIYGASSRATGIPDRFSGSGSGTDFTLTISRLEPEDFAVYYCQHYDNSQTFGQGTKVEIK | – | – | – | Kd [1]: 0.0651 nM; T1/2 [1]: 3.47 h; Kd [2]: 0.148 nM; T1/2 [2]: 2.14 h; Kd [3]: 0.0939 nM; T1/2 [3]: 1.07 h
H1H691P (antibody, V domains shown, Fully human antibody, human IgG1) VH: EVQLVESGGGLVQPGRSLRLSCAASGFTFDDYAMHWVRQAPGKGLEWVSGISWNSGDIGYADSVKGRFTISRDNAKNSLYLQMNSLRAQDTALYYCAKAYGDYYYFYGMDVWGQGTTVTVS VL: EIVLTQSPGTLSLSPGERATLSCRASQSVSSSYLAWYQQKPGQAPRLLIFSASSRATGIPDRFSGSGSGTDFTLTISRLEPEDFAVYYCQQYDNSLTFGGGTKVEIK | 99.8 | 97.4 | 96.7 | –
H1H744N (antibody, V domains shown) VH: QVQLVQSGVEVKKPGASVKVSCKTSGYTFSNNGFSWVRQAPGQGLEWLGWISGYNGNTNYAQKFQGRVTMTTDTSTSTAYMELRTLRSDDTAVYYCARDQDYSNFHWLDPWGQGTLVTVAS VL: DIQMTQSPSSVSASVGDRVIITCRASQGLSSWLAWYQQKPGTAPKLLIHSASSLQTGVPSRFSGSGSGTEFALTINSLQPEDFGTYYCQQANSFPLTFGGGTRVEIK [H1H744N, listing 1 of 2 here] | – | – | – | Kd [1]: 0.385 nM; T1/2 [1]: 0.55 h; Kd [4]: 0.244 nM; T1/2 [4]: 0.4 h; T1/2 [2]: 1.92 h; Kd [5]: 0.346 nM; T1/2 [5]: 2.73 h; Kd [6]: 0.114 nM; T1/2 [6]: 2.12 h; Kd [3]: 0.215 nM; T1/2 [3]: 0.433 h; Kd [7]: 0.32 nM; T1/2 [7]: 0.183 h
H1H744N (antibody, V domains shown) VH: QVQLVQSGVEVKKPGASVKVSCKTSGYTFSNNGFSWVRQAPGQGLEWLGWISGYNGNTNYAQKFQGRVTMTTDTSTSTAYMELRTLRSDDTAVYYCARDQDYSNFHWLDPWGQGTLVTVAS VL: DIQMTQSPSSVSASVGDRVIITCRASQGLSSWLAWYQQKPGTAPKLLIHSASSLQTGVPSRFSGSGSGTEFALTINSLQPEDFGTYYCQQANSFPLTFGGGTRVEIK [H1H744N, listing 2 of 2 here] | 96.2 | 97.9 | 97.6 | –
H1H706P (antibody, V domains shown, Fully human antibody, human IgG1) VH: QVQLVESGGGVVQPGRSLRLSCAASGFTFSSYGMHWVRQAPDKGLEWVAVKWDDGSNKYYADSVKGRFTISRDNSKNTLYLQMNSLRAEDTAVYYCAREGPYDFYSGYGAFDIWGQGTMVTVSS VL: DIQMTQSPSSLSASVGDRVTITCRASQGISNYLAWFQQKPGKAPKSLIYAASSLQSGVPSKFSGSGSGTDFTLTISSLQPEDFATYYCQQYNSYPRTFGQGTKVEIK | 99.8 | 97.1 | 95.9 | –
H1H707P (antibody, V domains shown, Fully human antibody, human IgG1) VH: QVQLVESGGGVVQPGRSLRLSCAASGFTFSSYGMHWVRQAPDKGLEWVAVKWDDGSNKYYADSVKGRFTISRDNSKNTLYLQMNSLRAEDTAVYYCAREGPYDFYSGYGAFDIWGQGTMVTVSS VL: not shown | – | 95.1 | 93.8 | –
